Source: the supplement of paper PMC5998384

How the values were obtained:
[1] = tested on: HeLa Kyoto; assay: solubility in G1/S (NP-40 vs SDS abundance) (log2 ratio); higher = more soluble; conditions: cell cycle stage: G1/S
[2] = tested on: HeLa Kyoto; assay: melting temperature (median over replicates), in situ; higher = more thermally stable
[3] = tested on: HeLa Kyoto; assay: solubility change mitosis vs G1/S (difference of NP-40 vs SDS log2 ratios) (log2 ratio difference); higher = more soluble in mitosis
[4] = tested on: HeLa Kyoto; assay: thermal stability score vs G1/S (z-score of summed log2 fold changes over temperatures); higher = more thermally stable than in G1/S
[5] = cell cycle stage: early G1 (4.5 h after nocodazole release)
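Wherever melting temperature (median over replicates), in situ is given: HeLa Kyoto cells synchronized by double thymidine or nocodazole block, proteins quantified by TMT10plex mass spectrometry, three independent biological replicates.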
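Wherever solubility change mitosis vs G1/S (difference of NP-40 vs SDS log2 ratios) is given: synchronized HeLa Kyoto cells (double thymidine block for G1/S, nocodazole release for mitosis), protein amounts in NP-40 versus SDS lysates quantified by mass spectrometry, three biological replicates.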
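Wherever solubility in G1/S (NP-40 vs SDS abundance) is given: HeLa Kyoto cells arrested at G1/S by double thymidine block, proteins quantified by TMT10plex mass spectrometry in mild NP-40 versus SDS extracts, three biological replicates.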
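Wherever thermal stability score vs G1/S (z-score of summed log2 fold changes over temperatures) is given: synchronized HeLa Kyoto cells, proteins quantified by TMT10plex mass spectrometry, three biological replicates, mitosis taken 0.5 h after nocodazole release, G1/S directly after double thymidine block.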

| Sequence | solubility in G1/S (log2) [1] | melting temperature ([2]; cell cycle stage: G1/S) [°C] | melting temperature ([2]; cell cycle stage: mitosis) [°C] | solubility change mitosis (log2) [3] | thermal stability score [4, 5] | thermal stability score ([4]; cell cycle stage: mitosis) |
| --- | --- | --- | --- | --- | --- | --- |
| MESCYNPGLDGIIEYDDFKLNSSIVEPKEPAPETADGPYLVIVEQPKQRGFRFRYGCEGPSHGGLPGASSEKGRKTYPTVKICNYEGPAKIEVDLVTHSDPPRAHAHSLVGKQCSELGICAVSVGPKDMTAQFNNLGVLHVTKKNMMGTMIQKLQRQRLRSRPQGLTEAEQRELEQEAKELKKVMDLSIVRLRFSAFLRASDGSFSLPLKPVISQPIHDSKSPGASNLKISRMDKTAGSVRGGDEVYLLCDKVQKDDIEVRFYEDDENGWQAFGDFSPTDVHKQYAIVFRTPPYHKMKIERPVTVFLQLKRKRGGDVSDSKQFTYYPLVEDKEEVQRKRRKALPTFSQPFGGGSHMGGGSGGAAGGYGGAGGGGSLGFFPSSLAYSPYQSGAGPMGCYPGGGGGAQMAATVPSRDSGEEAAEPSAPSRTPQCEPQAPEMLQRAREYNARLFGLAQRSARALLDYGVTADARALLAGQRHLLTAQDENGDTPLHLAIIHGQTSVIEQIVYVIHHAQDLGVVNLTNHLHQTPLHLAVITGQTSVVSFLLRVGADPALLDRHGDSAMHLALRAGAGAPELLRALLQSGAPAVPQLLHMPDFEGLYPVHLAVRARSPECLDLLVDSGAEVEATERQGGRTALHLATEMEELGLVTHLVTKLRANVNARTFAGNTPLHLAAGLGYPTLTRLLLKAGADIHAENEEPLCPLPSPPTSDSDSDSEGPEKDTRSSFRGHTPLDLTCSTKVKTLLLNAAQNTMEPPLTPPSPAGPGLSLGDTALQNLEQLLDGPEAQGSWAELAERLGLRSLVDTYRQTTSPSGSLLRSYELAGGDLAGLLEALSDMGLEEGVRLLRGPETRDKLPSTAEVKEDSAYGSQSVEQEAEKLGPPPEPPGGLCHGHPQPQVH [NFKB2] | 0.18 | 47.5 | 48.3 | -0.0485 | 1.06 | 3.27 |
| MESKALLVLTLAVWLQSLTASRGGVAAADQRRDFIDIESKFALRTPEDTAEDTCHLIPGVAESVATCHFNHSSKTFMVIHGWTVTGMYESWVPKLVAALYKREPDSNVIVVDWLSRAQEHYPVSAGYTKLVGQDVARFINWMEEEFNYPLDNVHLLGYSLGAHAAGIAGSLTNKKVNRITGLDPAGPNFEYAEAPSRLSPDDADFVDVLHTFTRGSPGRSIGIQKPVGHVDIYPNGGTFQPGCNIGEAIRVIAERGLGDVDQLVKCSHERSIHLFIDSLLNEENPSKAYRCSSKEAFEKGLCLSCRKNRCNNLGYEINKVRAKRSSKMYLKTRSQMPYKVFHYQVKIHFSGTESETHTNQAFEISLYGTVAESENIPFTLPEVSTNKTYSFLIYTEVDIGELLMLKLKWKSDSYFSWSDWWSSPGFAIQKIRVKAGETQKKVIFCSREKVSHLQKGKAPAVFVKCHDKSLNKKSG [LPL] | -0.0225 | 53.9 | 53.7 | -0.028 | -1.96 | -2.52 |
| MESPGESGAGSPGAPSPSSFTTGHLAREKPAQDPLYDVPNASGGQAGGPQRPGRVVSLRERLLLTRPVWLQLQANAAAALHMLRTEPPGTFLVRKSNTRQCQALCMRLPEASGPSFVSSHYILESPGGVSLEGSELMFPDLVQLICAYCHTRDILLLPLQLPRAIHHAATHKELEAISHLGIEFWSSSLNIKAQRGPAGGPVLPQLKARSPQELDQGTGAALCFFNPLFPGDLGPTKREKFKRSFKVRVSTETSSPLSPPAVPPPPVPVLPGAVPSQTERLPPCQLLRRESSVGYRVPAGSGPSLPPMPSLQEVDCGSPSSSEEEGVPGSRGSPATSPHLGRRRPLLRSMSAAFCSLLAPERQVGRAAAALMQDRHTAAGQLVQDLLTQVRAGPEPQELQGIRQALSRARAMLSAELGPEKLLSPKRLEHVLEKSLHCSVLKPLRPILAARLRRRLAADGSLGRLAEGLRLARAQGPGAFGSHLSLPSPVELEQVRQKLLQLLRTYSPSAQVKRLLQACKLLYMALRTQEGEGAGADEFLPLLSLVLAHCDLPELLLEAEYMSELLEPSLLTGEGGYYLTSLSASLALLSGLGQAHTLPLSPVQELRRSLSLWEQRRLPATHCFQHLLRVAYQDPSSGCTSKTLAVPPEASIATLNQLCATKFRVTQPNTFGLFLYKEQGYHRLPPGALAHRLPTTGYLVYRRAEWPETQGAVTEEEGSGQSEARSRGEEQGCQGDGDAGVKASPRDIREQSETTAEGGQGQAQEGPAQPGEPEAEGSRAAEE [RIN1] | 0.282 | 48.9 | 48.6 | -0.062 | 0.0327 | 1.21 |
| MESRDPAQPMSPGEATQSGARPADRYGLLKHSREFLDFFWDIAKPEQETRLAATEKLLEYLRGRPKGSEMKYALKRLITGLGVGRETARPCYSLALAQLLQSFEDLPLCSILQQIQEKYDLHQVKKAMLRPALFANLFGVLALFQSGRLVKDQEALMKSVKLLQALAQYQNHLQEQPRKALVDILSEVSKATLQEILPEVLKADLNIILSSPEQLELFLLAQQKVPSKLKKLVGSVNLFSDENVPRLVNVLKMAASSVKKDRKLPAIALDLLRLALKEDKFPRFWKEVVEQGLLKMQFWPASYLCFRLLGAALPLLTKEQLHLVMQGDVIRHYGEHVCTAKLPKQFKFAPEMDDYVGTFLEGCQDDPERQLAVLVAFSSVTNQGLPVTPTFWRVVRFLSPPALQGYVAWLRAMFLQPDLDSLVDFSTNNQKKAQDSSLHMPERAVFRLRKWIIFRLVSIVDSLHLEMEEALTEQVARFCLFHSFFVTKKPTSQIPETKHPFSFPLENQAREAVSSAFFSLLQTLSTQFKQAPGQTQGGQPWTYHLVQFADLLLNHSHNVTTVTPFTAQQRQAWDRMLQTLKELEAHSAEARAAAFQHLLLLVGIHLLKSPAESCDLLGDIQTCIRKSLGEKPRRSRTKTIDPQEPPWVEVLVEILLALLAQPSHLMRQVARSVFGHICSHLTPRALQLILDVLNPETSEDENDRVVVTDDSDERRLKGAEDKSEEGEDNRSSESEEESEGEESEEEERDGDVDQGFREQLMTVLQAGKALGGEDSENEEELGDEAMMALDQSLASLFAEQKLRIQARRDEKNKLQKEKALRRDFQIRVLDLVEVLVTKQPENALVLELLEPLLSIIRRSLRSSSSKQEQDLLHKTARIFTHHLCRARRYCHDLGERAGALHAQVERLVQQAGRQPDSPTALYHFNASLYLLRVLKGNTAEGCVHETQEKQKAGTDPSHMPTGPQAASCLDLNLVTRVYSTALSSFLTKRNSPLTVPMFLSLFSRHPVLCQSLLPILVQHITGPVRPRHQACLLLQKTLSMREVRSCFEDPEWKQLMGQVLAKVTENLRVLGEAQTKAQHQQALSSLELLNVLFRTCKHEKLTLDLTVLLGVLQGQQQSLQQGAHSTGSSRLHDLYWQAMKTLGVQRPKLEKKDAKEIPSATQSPISKKRKKKGFLPETKKRKKRKSEDGTPAEDGTPAATGGSQPPSMGRKKRNRTKAKVPAQANGTPTTKSPAPGAPTRSPSTPAKSPKLQKKNQKPSQVNGAPGSPTEPAGQKQHQKALPKKGVLGKSPLSALARKKARLSLVIRSPSLLQSGAKKKAQVRKAGKP [MYBBP1A] | -0.42 | 48.1 | 48.9 | 0.349 | 0.7 | 2.36 |
| MESVSCSAAAVRTGDMESQRDLSLVPERLQRREQERQLEVERRKQKRQNQEVEKENSHFFVATFVRERAAVEELLERAESVERLEEAASRLQGLQKLINDSVFFLAAYDLRQGQEALARLQAALAERRRGLQPKKRFAFKTRGKDAASSTKVDAAPGIPPAVESIQDSPLPKKAEGDLGPSWVCGFSNLESQVLEKRASELHQRDVLLTELSNCTVRLYGNPNTLRLTKAHSCKLLCGPVSTSVFLEDCSDCVLAVACQQLRIHSTKDTRIFLQVTSRAIVEDCSGIQFAPYTWSYPEIDKDFESSGLDRSKNNWNDVDDFNWLARDMASPNWSILPEEERNIQWD [TBCC] | 0.242 | 51.8 | 52.4 | -0.152 | 0.786 | 0.503 |
| MESYDIIANQPVVIDNGSGVIKAGFAGDQIPKYCFPNYVGRPKHMRVMAGALEGDLFIGPKAEEHRGLLTIRYPMEHGVVRDWNDMERIWQYVYSKDQLQTFSEEHPVLLTEAPLNPSKNREKAAEVFFETFNVPALFISMQAVLSLYATGRTTGVVLDSGDGVTHAVPIYEGFAMPHSIMRVDIAGRDVSRYLRLLLRKEGVDFHTSAEFEVVRTIKERACYLSINPQKDEALETEKVQYTLPDGSTLDVGPARFRAPELLFQPDLVGDESEGLHEVVAFAIHKSDMDLRRTLFANIVLSGGSTLFKGFGDRLLSEVKKLAPKDIKIKISAPQERLYSTWIGGSILASLDTFKKMWVSKKEYEEDGSRAIHRKTF [ACTR1B] | -0.021 | 54 | 53.1 | -0.178 | -0.612 | -1.12 |
| METAEKECGALGGLFQAIVNDMKSSYPIWEDFNSKATKLHSQLRTTVLAAVAFLDAFQKVADMATNTRGATRDIGSALTRMCMRHRSIETKLRQFTNALLESLINPLQERIEDWKKAANQLDKDHAKEYKRARHEIKKKSSDTLKLQKKARKELLGKGDLQPQLDSALQDVNDMYLLLEETEKQAVRRALIEERGRFCTFITFLQPVVNGELTMLGEITHLQGIIDDLVVLTAEPHKLPPASEQVIKDLKGSDYSWSYQTPPSSPSSSSSRKSSMCSAPSSSSSAKGGGAPWPGGAQTYSPSSTCRYRSLAQPATTTARLSSVSSHDSGFVSQDATYSKPPSPMPSDITSQKSSSSASSEASETCQSVSECSSPTSDWSKVGSHEQPSGATLQRRKDRVELLRDTEPGPASGGTLGPSGEEAPRPRMSPATIAAKHGEEVSPAASDLAMVLTRGLSLEHQKSSRDSLQYSSGYSTQTTTPSCSEDTIPSQGSDYDCYSVNGDADSEGPPEFDKSSTIPRNSNIAQNYRRLIQTKRPASTAGLPTAGLPTATGLPSGAPPGVATIRRTPSTKPTVRRALSSAGPIPIRPPIVPVKTPTVPDSPGYMGPTRAGSEECVFYTDETASPLAPDLAKASPKRLSLPNTAWGSPSPEAAGYPGAGAEDEQQQLAANRHSLVEKLGELVAGAHALGEGQFPFPTALSATPTEETPTPPPAATSDPPAEDMLVAIRRGVRLRRTVTNDRSAPRIL [MTSS1L] | 0.191 | 53.5 | 54.2 | -0.0468 | 0.647 | 0.625 |
| METLSFPRYNVAEIVIHIRNKILTGADGKNLTKNDLYPNPKPEVLHMIYMRALQIVYGIRLEHFYMMPVNSEVMYPHLMEGFLPFSNLVTHLDSFLPICRVNDFETADILCPKAKRTSRFLSGIINFIHFREACRETYMEFLWQYKSSADKMQQLNAAHQEALMKLERLDSVPVEEQEEFKQLSDGIQELQQSLNQDFHQKTIVLQEGNSQKKSNISEKTKRLNELKLSVVSLKEIQESLKTKIVDSPEKLKNYKEKMKDTVQKLKNARQEVVEKYEIYGDSVDCLPSCQLEVQLYQKKIQDLSDNREKLASILKESLNLEDQIESDESELKKLKTEENSFKRLMIVKKEKLATAQFKINKKHEDVKQYKRTVIEDCNKVQEKRGAVYERVTTINQEIQKIKLGIQQLKDAAEREKLKSQEIFLNLKTALEKYHDGIEKAAEDSYAKIDEKTAELKRKMFKMST [NUF2] | -0.0908 | 48.2 | 48.1 | -0.0858 | 0.86 | 1.16 |
